Measurements published in the supplement of paper PMC12455559.
± gives the standard deviation of the averaged measurements.

How the values were obtained:
[1] = purified protein yield per well (BCA); higher = higher soluble expression
Summary of the method: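 The measured quantity is purified protein yield per well, determined with the Pierce Rapid Gold BCA kit. Anything below 25 ug (0.1 mg/mL) lies under the detection threshold. Enzymes were expressed in E. coli C41(DE3) in 2 mL autoinduction cultures with 100 µg/mL kanamycin at 37 °C for 2 h, then 18 °C for 40 h, and purified on an OT-2 robot using Ni-charged magnetic beads and SUMO protease release.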

[2] = PET hydrolysis, aromatic products released after 48 h (umol product/mg enzyme); higher = more PET depolymerization activity
Summary of the method: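 PET hydrolysis activity was taken as the aromatic product in the supernatant and expressed per mg enzyme. This product was measured by absorbance at 260 and 280 nm against buffer blanks. Each reaction held 5 μg (50 μL) of tagless, SUMO-cleaved candidate enzyme purified on nickel beads, plus 3.5 mg amorphous PET film or crystalline PET powder in 450 μL buffer: 50 mM NaCitrate (pH 4.5, 5.5), 50 mM NaPhosphate (pH 6.5, 7.5) or glycine (pH 8.5). Plates were sealed and left 48 h at 40 or 60 °C without shaking.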

[3] = melting temperature (DSF); higher = more thermostable
Summary of the method: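 Enzymes made in E. coli C41(DE3) were nickel-bead purified and cut free with SUMO protease before testing. Differential scanning fluorimetry gave each melting temperature. For this, 5 μL 5X Sypro Orange was added to 45 μL enzyme (0 to 0.3 mg/mL) in sealed PCR plates, and a Bio-Rad CFX96 read fluorescence from 25 °C over 250 cycles of 0.3 °C each, ramping at 0.3 °C/s.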

[4] = substrate: aFilm, 40 °C, pH 4.5
[5] = substrate: aFilm, 40 °C, pH 5.5
[6] = substrate: aFilm, 40 °C, pH 6.5
[7] = substrate: aFilm, 40 °C, pH 7.5
[8] = substrate: aFilm, 60 °C, pH 4.5
[9] = substrate: aFilm, 60 °C, pH 5.5
[10] = substrate: aFilm, 60 °C, pH 6.5
[11] = substrate: aFilm, 60 °C, pH 7.5
[12] = substrate: cryPow, 40 °C, pH 4.5
[13] = substrate: cryPow, 40 °C, pH 5.5
[14] = substrate: cryPow, 40 °C, pH 6.5
[15] = substrate: cryPow, 40 °C, pH 7.5
[16] = substrate: cryPow, 60 °C, pH 4.5
[17] = substrate: cryPow, 60 °C, pH 5.5
[18] = substrate: cryPow, 60 °C, pH 6.5
[19] = substrate: cryPow, 60 °C, pH 7.5

Sequence | purified protein yield per well [1] [µg] | PET hydrolysis [2, 4] | PET hydrolysis [2, 5] | PET hydrolysis [2, 6] | PET hydrolysis [2, 7] | PET hydrolysis [2, 8] | PET hydrolysis [2, 9] | PET hydrolysis [2, 10] | PET hydrolysis [2, 11] | PET hydrolysis [2, 12] | PET hydrolysis [2, 13] | PET hydrolysis [2, 14] | PET hydrolysis [2, 15] | PET hydrolysis [2, 16] | PET hydrolysis [2, 17] | PET hydrolysis [2, 18] | PET hydrolysis [2, 19] | melting temperature [3] [C]
MAENPYERGPAPTTSSIEASRGSFATSTVTVSRLAVSGFGGGTIYYPTSTTAGTFGAISIAPGFTALQSSIAWLGPRLASQGFVVFTIDTLTTSDQPDSRGRQLLAALDYLTQQSSVRSRIDSSRLGVVGHSMGGGGTLEAARSRPSLQAAIPLTGWNLTKTWSTVRVPTLVVGAQADTVAPVASHSIPFYNSLPSSLDKAYLELRGASHFAPNSSNTTIAKYTLSWLKRFIDNDTRYEQFLCPIPSTSLSISDYRGNCPHNG [TEP182] | 290 | < 3 | < 3 | < 3 | < 3 | < 3 | < 3 | < 3 | < 3 | < 3 | 6 | 11 | 17.5 ± 2.1 | < 3 | 4 | 12.5 ± 0.71 | 15.5 ± 0.71 | 53.5
MAGAAGWPSTASAADNPYQRGPAPTAASIAADRGPFATAQVTVPRGNGFGGGVIYYPTDTSQGTFGAIAIAPGFSTAWSYYAWQGPRLASFGFVVIGIETNTLNDYADARAAQLLAALDYLVNSSSVRDRVDRNRLAVGGHSMGGGGAILAANQRPSLLTAVGQAPYVPDGSLSGIKSPTIIFAGQTDGTVTPQYAQNAYNTIPGSVERAYVEIANEGHGFPAGGGGGNSGAFARTMMIWLKLFVDKDTRYAPFLCPALTNANGISKYMASCPLDPPGGGPTASPTSTPTSTPTSTPTGSPPTGSTSSLRGVASGRCLDVNGASQSNGATVLIWDCNGQSNQKWTSTSASELRVYGGKCLDVNGGGTADGTAVIIWDCNGQNNQKWRFNSDSSITAVGANKCLDVSANGTANGTRVQIWSCTGGGNQKWTRV [ESM024] | 86.8 |  |  |  |  |  |  |  |  | < 3 | < 3 | 3 | 4 |  |  |  |  | 62.8
MAQTSSCSLMGDVDGSGAIDIVDALLVAQAYVGLNPANYNDACADVDCSDSANIVDALLVAQLYVGLISSFPCEVTPEPTGVSTPTPGGAISIACGSSSAVGSFQADEYYSGGSTYNNSNTVDVSLITDNPPPAALFNNERYGEMSYTIPGFTAGGTYAVTLYFAETYLTSSGSRQFNVSINGTAVLSSFDIYAAAGGQNRAVARAFTTTADSGGQIVIQFTSVTENPKINGISIQAGTAPTPGPTATPGPTSENPYERGPDPSLESVAASRGTFATAELTLSPGNGFGGGFIYYPTDTSLGTWAAVAICPGYTAKFANEETWMGHWLASFGFVVIGIETNTTTDSVDARGTQLLAALDYLTQQSAVRDRVDPDRLMVMGHSAGGGGAFTAAVQRSSLKTVVGLAPASASNMGSLRMPVMIISGQYDDVITPSYINGIWTSLSPTIQRAWIELANNDHLSFTRSNSTEMRVLIPWMKIFLDNDTRYTQFLCPLADSSGISKYENSCPLVP [TEP011] | 30.6 |  |  |  |  |  |  |  |  | < 3 | < 3 | < 3 | < 3 |  |  |  |  | 64.6
MASIVVPGSAAAADNPYQRGPNPTQASVAANRGTFATAETSVGGGNGFGGAKIYYPTDTSQGTFGAIAVVPGYTATWAAEGAWMGHWLSSFGFVVIGIDTNSRNDNDTARGTQLLAALDYLTQRSSVRARVDPNRLAVMGHSMGGGGAISAALRRPTLKAAIGNAPFSPSQNLSTMRVPTALLAGQRDGTVTPSLVSGYYNQIPASTEKMYLELTGAGHGFPTSNNSVATRKWVPWMKIFLDQDTRYQQFLCPLLDNTGISAYRSTCPLIPGDPAPGTTFSLAGSASGKCVDVPGGTQTNGAGLIIWPCRGVTNQRWAQTAAGELRIYDNAKCMDANASGQGARVTINSCHGGASQKWTVNTNGTVTNSASGRCLEAVGTADDAPVVVNTCNGGSGQTWAKRA [TEP164] | 192 |  |  |  |  |  |  |  |  | < 3 | 7 | 25 | 31 | < 3 | < 3 | < 3 | < 3 | 64
MIATIPDGSAAAAADDNPYQRGPDPTVASVAAQYGPFATAQITVPPGNGFNGGFIYYPTDTSHTYGAVAIVPGYTALFANEEAWMGPRLASFGFVVIGVETNSRNDYDTARGTQLLAALDYLTNSSAVRDRVDRNRLAVIGHSMGGGGSLYAATQRPSLKAAIGLAPFKPSGNLASDTVPTMIIGGINDTTVTPSYLDGLYPTLPAATPGAYLQLANADHLYFTRPNDIELRSQIEWLKIFVDNDARYTQFLCPSIKDTTGIARSNVKCSTIPSGGSTPPSSPPPVPSGPQRILAAQSGRCVDVPNATHNNGTRVQLYDCNGQANQQWTSTSSKQLTVYGNVCLDAAGSGNGAAVQIYSCNGQSNQQWNVNANGTITGVQSGRCLDVWGTGNGQQIQLWDCNGQANQRFSLS [TEP181] | 249 | < 3 | < 3 | < 3 | < 3 | < 3 | < 3 | < 3 | < 3 | 4.5 ± 0.71 | 12.5 ± 0.71 | 11 ± 1.4 | < 3 | < 3 | < 3 | < 3 | < 3 | 50.2
MLGALAIVGGTRPATGADNPYQRGPDPTPASVSAGRGTFATAQVSVGAGNGFGGGVIYYPTDTSQGTFGAIAVVPGYTATWAAEGAWMGHWLASYGFVVIGIDTNTRNDWDTARGTQLLAALDYLTQRSSVRDRVDATRTAVMGHSMGGGGAAYASLQRPSLKTSVGLAPFSPSQNLTTTRVPTMLLSGQNDGTVTPSSVQNLYNGIPAGVEKAYLELTGAGHGFPTSNNPTMMRTVIPWFKIFVDSDTRYTQFLCPLADSNGIRTYQSTCPLVPSTPPTTTTTPTSTTTTSTTSTTPTTTTTTPQPGGACSATYRTVNSWSGGYQGEVTVTAGTSAVTGWTVRWSLGSGQTISQVWNGTLTVDGPTASVRNVSYNGSLGANASTTFGFIGGGTPPTSTLSCTSP [ESM006] | 577 | < 3 | < 3 | < 3 | < 3 | < 3 | < 3 | < 3 | < 3 | < 3 | 6.5 ± 0.71 | 13 ± 1.4 | 17.5 ± 6.4 | < 3 | < 3 | < 3 | < 3 | 63.1
